Results on one substance are retold here after PMC8915838.

The target in assay [1] is leukotriene A4 hydrolase (LTA4H) (UniProt P09960). Nature of the assay: SPR.
The target is the same in assay [2]. Nature of the assay: enzyme inhibition.
The next assay has as its target plasmin. Nature of the assay: enzyme inhibition.
A further assay addresses trypsin. Nature of the assay: enzyme inhibition.

Take “MTX, immunosuppressant protein from the submandibular salivary glands of the bat Myotis pilosus (natural protein)”: the Kd in assay [1] is 0.45 nM. In addition, the Ki in assay [2] was 1230 nM; in the assay with plasmin, 80 nM; with trypsin, 67.5 nM.
